# Data from patent US20200377590A1 (Hoffmann-La Roche, published 2020).
# Substitutions are numbered along the chain they refer to.
# T1: CD81 (UniProt P60033 1-236, limits assumed)
# T1 construct: whole, on cells; also called CD81 receptor
# T1 sequence (looked up): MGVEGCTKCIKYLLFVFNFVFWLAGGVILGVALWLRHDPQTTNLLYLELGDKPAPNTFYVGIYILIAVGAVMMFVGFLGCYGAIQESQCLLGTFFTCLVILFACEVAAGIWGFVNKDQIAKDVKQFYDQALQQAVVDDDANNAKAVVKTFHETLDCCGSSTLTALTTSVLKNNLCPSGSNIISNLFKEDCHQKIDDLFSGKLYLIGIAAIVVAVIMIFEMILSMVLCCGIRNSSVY
# B1: CD81K04 HC JA_GG-14-hVH_1_69 / LC GG-02-hVK_4_1 (antibody, V domains shown)
# VH: QVQLVQSGAEVKKPGSSVKVSCKASGYTFSSSWMNWVRQAPGQGLEWMGRIYSGDGDAIYNGKFKGKATITADESTSTAYMELSSLRSEDTAVYYCAREGKTGDLLLRSWGQGTLVTVSS
# VL: DIVMTQSPDSLAVSLGERATINCKSSKSVSTSIYSYMHWYQQKPGQPPKLLIYYASYRESGVPDRFSGSGSGTDFTLTISSLQAEDVAVYYCQHSREFPFTFGQGTKLEIK
# notes: human constant region
# B2: CD81K04 HC GG-02-hVH_1_69 / LC JA_GG-07-hVK_7_3 (antibody, V domains shown)
# VH: B1 VH with G62Q, K65Q, K67R, A68V
# VL: DIVLTQSPASLAVSPGQRATITCRASKSVSTSIYSYMHWYQQKPGQPPKLLIKYASNKDTGVPARFSGSGSGTDFTLTINPVEANDAANYYCLHSREFPYTFGQGTKLEIK
# notes: human constant region
# B3: CD81K04 HC GG-02-hVH_1_69 / LC GG-05-hVK_3_11 (antibody, V domains shown)
# VH: B1 VH with G62Q, K65Q, K67R, A68V
# VL: EIVLTQSPATLSLSPGERATLSCRASKSVSTSIYSYLHWYQQKPGQAPRLLIYYASNRETGIPARFSGSGSGTDFTLTISSLEPEDFAVYYCQHSREFPFTFGQGTKLEIK
# notes: human constant region
# B4: CD81K04 HC K04_JA_GG-17-hVH_1_3 / LC GG-02-hVK_4_1 (antibody, V domains shown)
# VH: B1 VH with S16A, G44R, A58T, N61S, G62Q, K65Q, K67R, A68V, E74T, T76A
# VL: B1 VL
# notes: human constant region
# B5: CD81K04 HC JA_GG-16-hVH_1_3 / LC GG-04-hVK_4_1 (antibody, V domains shown)
# VH: B1 VH with S16A, K67R, A68V, E74T, T76A
# VL: B1 VL with M37L, H38A, Y57T, F100Y
# notes: human constant region
# B6: CD81K04 HC JA_GG-16-hVH_1_3 / LC GG-02-hVK_4_1 (antibody, V domains shown)
# VH: B1 VH with S16A, K67R, A68V, E74T, T76A
# VL: B1 VL
# notes: human constant region
# B7: CD81K04 HC K04_JA-13-hVH_1_3 / LC GG-03-hVK_4_1 (antibody, V domains shown)
# VH: B1 VH with S16A, G44R, K67R, A68V, A72R, E74T, T76A
# VL: B1 VL with M37L, H38A
# notes: human constant region
# B8: CD81K04 HC K04_JA-13-hVH_1_3 / LC JA_GG-07-hVK_7_3 (antibody, V domains shown)
# VH: B1 VH with S16A, G44R, K67R, A68V, A72R, E74T, T76A
# VL: B2 VL
# notes: human constant region
# B9: CD81K04 HC K04_JA-13-hVH_1_3 / LC GG-04-hVK_4_1 (antibody, V domains shown)
# VH: B1 VH with S16A, G44R, K67R, A68V, A72R, E74T, T76A
# VL: B1 VL with M37L, H38A, Y57T, F100Y
# notes: human constant region
# B10: CD81K04 HC JA_GG-13-hVH_1_69 / LC JA_GG-07-hVK_7_3 (antibody, V domains shown)
# VH: B1 VH with Y27G, N61A, G62Q, K65Q, K67R, A68V
# VL: B2 VL
# notes: human constant region
# B11: CD81K04 HC JA_GG-16-hVH_1_3 / LC JA_GG-10-hVK_4_1 (antibody, V domains shown)
# VH: B1 VH with S16A, K67R, A68V, E74T, T76A
# VL: B1 VL with K24R, S25A, Y53K, R58L, Q93E
# notes: human constant region
# B12: CD81K04 HC JA_GG-14-hVH_1_3 / LC JA_GG-07-hVK_7_3 (antibody, V domains shown)
# VH: B1 VH with S16A, K67R, E74T, T76A
# VL: B2 VL
# notes: human constant region
# B13: CD81K04 HC JA_GG-16-hVH_1_3 / LC JA_GG-09-hVK_4_1 (antibody, V domains shown)
# VH: B1 VH with S16A, K67R, A68V, E74T, T76A
# VL: B1 VL with Y53K, Y57T, Q93E
# notes: human constant region
# B14: CD81K04 HC JA_GG-14-hVH_1_69 / LC JA_GG-08-hVK_4_1 (antibody, V domains shown)
# VH: B1 VH
# VL: B1 VL with Y53K, R58L, Q93E
# notes: human constant region
# B15: CD81K04 HC JA_GG-14-hVH_1_69 / LC JA_GG-09-hVK_4_1 (antibody, V domains shown)
# VH: B1 VH
# VL: B1 VL with Y53K, Y57T, Q93E
# notes: human constant region
# B16: CD81K04 HC K04_JA-13-hVH_1_3 / LC GG-02-hVK_4_1 (antibody, V domains shown)
# VH: B1 VH with S16A, G44R, K67R, A68V, A72R, E74T, T76A
# VL: B1 VL
# notes: human constant region
# B17: CD81K04 HC K04_JA_GG-17-hVH_1_3 / LC JA_GG-09-hVK_4_1 (antibody, V domains shown)
# VH: B1 VH with S16A, G44R, A58T, N61S, G62Q, K65Q, K67R, A68V, E74T, T76A
# VL: B1 VL with Y53K, Y57T, Q93E
# notes: human constant region
# B18: CD81K04 HC JA_GG-14-hVH_1_69-GA / LC GG-03-hVK_4_1 (antibody, V domains shown)
# VH: B1 VH
# VL: B1 VL with M37L, H38A
# notes: human constant region
# B19: CD81K04 HC JA_GG-16-hVH_1_3 / LC JA_GG-07-hVK_7_3 (antibody, V domains shown)
# VH: B1 VH with S16A, K67R, A68V, E74T, T76A
# VL: B2 VL
# notes: human constant region
# B20: CD81K04 HC JA_GG-15-hVH_1_3 / LC GG-03-hVK_4_1 (antibody, V domains shown)
# VH: B1 VH with S16A, G44R, K67R, A68V, E74T, T76A
# VL: B1 VL with M37L, H38A
# notes: human constant region
# B21: CD81K04 HC JA_GG-14-hVH_1_69 / LC JA_GG-10-hVK_4_1 (antibody, V domains shown)
# VH: B1 VH
# VL: B1 VL with K24R, S25A, Y53K, R58L, Q93E
# notes: human constant region
# B22: CD81K04 HC GG-05-hVH_1_18 / LC JA_GG-07-hVK_7_3 (antibody, V domains shown)
# VH: QVQLVQSGAEVKKPGASVKVSCKASGYTFSSSWMNWVRQAPGQGLEWMGRIYSGDGDAIYAQKLQGRVTMTTDTSTSTAYMELRSLRSDDTAVYYCAREGKTGDLLLRSWGQGTLVTVSS
# VL: B2 VL
# notes: human constant region
# Molecular target: T1, CD81
# Assay: cell ELISA;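 also: antibody binding to HuH7 cells expressing CD81 versus a CD81-negative HuH7 control line, bound antibody detected by secondary reagent, absorbance at 450 nm with 620 nm reference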
row,Binder,ELISA data
1,B1,0.235
2,B2,0.13
3,B3,0.229
4,B4,0.709
5,B5,0.263
6,B6,0.596
7,B7,0.423
8,B8,0.255
9,B9,0.152
10,B10,0.087
11,B11,0.88
12,B12,0.154
13,B13,1.08
14,B14,0.835
15,B15,0.913
16,B16,0.475
17,B17,0.911
18,B18,0.243
19,B19,0.161
20,B20,0.545
21,B21,0.77
22,B22,0.14
